The source of these data is doi:10.1101/2022.09.21.508839.

As usually defined, the stoichiometry N is the number of molecules, sites or subunits per partner or assembly.

Several values for one entry are separate records, joined by “and”; a condition that tells them apart may be missing. Equal entries are not always repeated.

In this experiment the target is F-type ATP synthase from bovine heart mitochondria (Bos taurus (bovine)). Description: native gel or EMSA. A general note: A gel shift assay detects complexes by their altered migration in electrophoresis.

For the substance “F-type ATP synthase from bovine heart mitochondria (complex)”, the stoichiometry N was 2 and 4.
